System: peptide library, one residue held at a place counted from the S/T acceptor
Assay: relative phosphorylation of the sub-library (ratio to the mean residue at this position); higher = residue favoured
Settings: human
Summary of the method: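 Relative sub-library phosphorylation, a ratio to the mean residue at that position, was obtained by phosphorimaging and densitometry of spots on streptavidin membranes. Before capture, purified recombinant kinases were incubated for 90 min under kinase-specific conditions with 50 μM biotinylated degenerate peptide sub-libraries and 50 μM ATP spiked with γ-32P-ATP. Each sub-library fixed one residue at one position around a central Ser/Thr.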

Chain of PLK4, construct: aa1-836 (O00444 1-836, looked up): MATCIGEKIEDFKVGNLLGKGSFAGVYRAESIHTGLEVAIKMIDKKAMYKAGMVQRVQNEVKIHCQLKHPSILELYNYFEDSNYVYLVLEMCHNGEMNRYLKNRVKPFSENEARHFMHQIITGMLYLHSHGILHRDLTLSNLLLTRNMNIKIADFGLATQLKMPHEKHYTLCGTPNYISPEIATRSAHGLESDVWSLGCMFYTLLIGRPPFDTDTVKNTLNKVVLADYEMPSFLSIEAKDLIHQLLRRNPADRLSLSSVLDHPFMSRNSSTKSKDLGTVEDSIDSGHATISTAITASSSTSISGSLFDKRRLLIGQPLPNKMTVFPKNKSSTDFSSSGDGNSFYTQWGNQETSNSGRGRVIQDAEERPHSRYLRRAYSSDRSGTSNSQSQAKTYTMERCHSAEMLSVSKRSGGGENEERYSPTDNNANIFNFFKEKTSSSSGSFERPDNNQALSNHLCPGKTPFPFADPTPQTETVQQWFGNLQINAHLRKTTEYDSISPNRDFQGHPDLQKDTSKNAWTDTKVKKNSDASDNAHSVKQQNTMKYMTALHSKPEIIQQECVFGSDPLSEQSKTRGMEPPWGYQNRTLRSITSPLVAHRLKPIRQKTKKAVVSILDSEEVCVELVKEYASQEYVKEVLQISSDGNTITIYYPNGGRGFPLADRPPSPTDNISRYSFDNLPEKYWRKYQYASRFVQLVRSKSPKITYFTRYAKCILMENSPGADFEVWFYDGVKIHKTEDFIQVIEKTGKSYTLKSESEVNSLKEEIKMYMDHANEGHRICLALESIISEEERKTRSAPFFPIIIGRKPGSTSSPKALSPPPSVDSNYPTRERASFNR

MAP3K3, construct: Full length (from UniProt Q99759)
relative phosphorylation
Settings | at +1 | at +2 | at +3 | at +4 | at -1 | at -2 | at -3 | at -4 | at -5
A fixed | 0.713 | 0.684 | 0.711 | 0.953 | 0.837 | 0.924 | 0.739 | 0.897 | 0.956
D fixed | 0.304 | 0.643 | 0.767 | 0.758 | 1.28 | 1.65 | 1.39 | 1.38 | 1.12
E fixed | 0.322 | 0.539 | 0.758 | 1.04 | 1.01 | 0.958 | 1.37 | 1.23 | 1.01
F fixed | 1.32 | 0.884 | 1.38 | 0.916 | 0.902 | 1.09 | 0.946 | 0.955 | 1.11
G fixed | 0.603 | 0.488 | 0.904 | 0.904 | 1.25 | 0.969 | 1.33 | 0.913 | 0.916
H fixed | 0.779 | 2.55 | 1.03 | 0.859 | 1.24 | 0.984 | 0.918 | 0.982 | 1.13
I fixed | 1.77 | 0.745 | 1.01 | 0.961 | 0.747 | 1.02 | 0.876 | 0.892 | 0.869
K fixed | 0.516 | 1.42 | 1.19 | 1.7 | 1.18 | 0.591 | 0.998 | 1.1 | 1.15
L fixed | 1.49 | 0.808 | 1.2 | 0.821 | 0.922 | 0.794 | 0.851 | 0.93 | 0.895
M fixed | 1.74 | 1.05 | 1.11 | 0.953 | 0.943 | 1.01 | 0.902 | 1.05 | 0.944
N fixed | 0.48 | 1.03 | 0.992 | 0.962 | 1.3 | 0.932 | 1.04 | 1.01 | 1.03
P fixed | 0.34 | 0.255 | 0.361 | 0.982 | 0.482 | 0.728 | 0.723 | 0.736 | 0.744
Q fixed | 0.686 | 0.898 | 0.75 | 1.07 | 0.834 | 0.838 | 0.77 | 0.741 | 0.842
R fixed | 0.796 | 1.67 | 1.15 | 1.35 | 1.54 | 0.915 | 1.28 | 1.09 | 1.05
V fixed | 1.43 | 0.841 | 0.861 | 0.734 | 0.684 | 1.13 | 0.971 | 0.916 | 0.925
W fixed | 2.59 | 0.994 | 1.57 | 1.02 | 0.849 | 1.15 | 0.981 | 1.07 | 1.21
Y fixed | 1.11 | 1.5 | 1.26 | 1.02 | 1.01 | 1.31 | 0.912 | 1.1 | 1.08
pThr fixed | 1.12 | 1.39 | 0.824 | 1.37 | 1.23 | 2.17 | 2.37 | 1.82 | 2.48
pTyr fixed | 0.626 | 0.691 | 1.06 | 0.783 | 1.56 | 2.52 | 1.7 | 1.02 | 1.63

PLK4, construct: aa1-836 (from UniProt O00444)
relative phosphorylation
Settings | at +1 | at +2 | at +3 | at +4 | at -1 | at -2 | at -3 | at -4 | at -5
A fixed | 0.459 | 0.471 | 0.813 | 1.24 | 0.953 | 0.708 | 1.03 | 1.24 | 1.26
D fixed | 0.141 | 0.195 | 0.641 | 0.629 | 0.452 | 2.77 | 0.913 | 1.08 | 0.912
E fixed | 0.135 | 0.148 | 0.874 | 0.705 | 0.493 | 1.26 | 0.791 | 0.991 | 0.918
F fixed | 3.31 | 2.2 | 1.18 | 0.861 | 0.621 | 0.829 | 0.569 | 0.691 | 0.873
G fixed | 0.61 | 0.24 | 0.821 | 1.4 | 2.08 | 1.35 | 1.25 | 1.42 | 1.43
H fixed | 0.675 | 1.6 | 1.03 | 1.09 | 0.988 | 1.15 | 0.848 | 1.14 | 1.21
I fixed | 1.67 | 1.39 | 1.4 | 1.01 | 0.347 | 0.395 | 0.478 | 0.625 | 0.582
K fixed | 0.413 | 0.219 | 0.704 | 1.05 | 2.14 | 0.712 | 1.07 | 1.04 | 1.28
L fixed | 1.62 | 1.35 | 1.33 | 1.01 | 0.858 | 0.398 | 0.715 | 0.748 | 0.771
M fixed | 2.44 | 0.906 | 1.2 | 1.05 | 1.33 | 0.676 | 0.867 | 0.893 | 0.728
N fixed | 0.409 | 0.294 | 0.58 | 0.829 | 1.09 | 2.41 | 1.97 | 1.54 | 1.28
P fixed | 0.168 | 0.141 | 0.381 | 1.55 | 0.331 | 0.486 | 1.98 | 1.25 | 0.926
Q fixed | 0.58 | 0.252 | 0.785 | 1.01 | 1.27 | 0.778 | 0.96 | 0.956 | 0.825
R fixed | 0.44 | 0.216 | 0.609 | 0.711 | 1.85 | 0.75 | 1.14 | 0.944 | 1.07
V fixed | 1.08 | 1.12 | 1.36 | 0.969 | 0.571 | 0.44 | 1.08 | 0.776 | 0.87
W fixed | 1.47 | 2.81 | 1.84 | 0.991 | 0.672 | 1 | 0.717 | 0.917 | 1.21
Y fixed | 1.38 | 3.44 | 1.44 | 0.889 | 0.955 | 0.881 | 0.627 | 0.746 | 0.848
pThr fixed | 0.54 | 0.446 | 0.572 | 0.592 | 0.571 | 0.796 | 1.08 | 0.931 | 0.889
pTyr fixed | 0.526 | 1.37 | 0.734 | 0.52 | 1.06 | 0.753 | 0.841 | 0.86 | 0.806

Reference: the supplement of paper PMC9876800
